Among the data in patent US20200148779A1 (Bristol-Myers Squibb, published 2020) are Kd values, retold here.

This assay addresses T1, human-CD40-Fc (human, UniProt P25942 21-193).
T1 construct: generated in house; also called hCD40-Fc; not shown: Fc part of the in-house hCD40-Fc is not described
Kind of assay: SPR, dAb-Fc on immobilized hCD40-Fc, apparent KD (avidity).

Where a chain is given by its changes, count along the chain named. Bounds are passed on as bounds.

T1 sequence (P25942 21-193): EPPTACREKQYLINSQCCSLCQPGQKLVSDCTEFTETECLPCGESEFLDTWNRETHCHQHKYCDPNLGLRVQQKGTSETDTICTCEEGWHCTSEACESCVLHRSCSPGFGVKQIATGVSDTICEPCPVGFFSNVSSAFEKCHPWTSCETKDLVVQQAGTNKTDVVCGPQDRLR

B1: 3h56-269-IgG1.1f (Fc fusion)
chain: EVQLLESGGGLVQPGGSLRLSCAASGFTFRDYEMWWVRQAPGKGLERVSAINPQGTRTYYADSVKGRFTISRDNSKNTLYLQMNSLRAEDTAVYYCAKLPFRFSDRGQGTLVTVSSASTEPKSCDKTHTCPPCPAPEAEGAPSVFLFPPKPKDTLMISRTPEVTCVVVDVSHEDPEVKFNWYVDGVEVHNAKTKPREEQYNSTYRVVSVLTVLHQDWLNGKEYKCKVSNKALPSSIEKTISKAKGQPREPQVYTLPPSREEMTKNQVSLTCLVKGFYPSDIAVEWESNGQPENNYKTTPPVLDSDGSFFLYSKLTVDKSRWQQGNVFSCSVMHEALHNHYTQKSLSLSPGK
For B1, the Kd is < 1 nM.

B2: 3h56-269-IgG1.3f (Fc fusion)
chain: B1 chain with S234A, S235P
Consider B2, for which the Kd is < 1 nM.
